Laboratory results: article PMC7054286, “Functional Characterization of the Arabidopsis Abscisic Acid Transporters NPF4.5 and NPF4.6 in Xenopus Oocytes” (Frontiers in Plant Science, 2020)

B1: NPF4.5 (Arabidopsis thaliana) (protein)
chain: MEVEMHGDVSKWEGYADWRNKAALRGRHGGMLAASFVLAVEILENLAFLANASNLVLYLKNFMHMSLARSSSEVTTFMATAFLLALLGGFLADAFFSTFVIFLISASIEFLGLILLTIQARRPSLMPPPCKSSAALRCEVVGGSKAAFLFVGLYLVSLGIGGIKGSLPSHGAEQFDEGTPKGRKQRSTFFNYYVFCLSCGALVAVTFVVWIEDNKGWEWGFGVSTISIFLSILVFLLGSRFYKNKIPRGSPLTTIFKVLLAASIVSCSSKTSSNHFTSREVQSEHEEKTPSQSLTNSLTCLNKAIEGKTHHIWLECTVQQVEDVKIVLKMLPIFGCTIMLNCCLAQLSTYSVHQAATMNRKIVNFNVPSASLPVFPVVFMLILAPTYDHLIIPFARKVTKSEIGITHLQRIGVGLVLSIVAMAVAALVELKRKQVAREAGLLDSEETLPITFLWIALQYLFLGSADLFTLAGLLEFFFTEAPSSMRSLATSLSWASLALGYYLSSVMVPIVNRVTKSAGQSPWLGEKLNRNRLDLFYWLMCVLSVVNFLHYLFWAKRYKYISTGSIS
notes: full CDS (ABRC, pENTR223) in pGEM-GWC; cRNA-injected Xenopus oocytes; tag not given
B2: NPF4.6 (Arabidopsis thaliana) (protein)
chain: MEVEEEVSRWEGYADWRNRAAVKGRHGGMLAASFVLVVEILENLAYLANASNLVLYLREYMHMSPSKSANDVTNFMGTAFLLALLGGFLSDAFFSTFQIFLISASIEFLGLIILTIQARTPSLMPPSCDSPTCEEVSGSKAAMLFVGLYLVALGVGGIKGSLASHGAEQFDESTPKGRKQRSTFFNYFVFCLACGALVAVTFVVWLEDNKGWEWGFGVSTIAIFVSILIFLSGSRFYRNKIPCGSPLTTILKVLLAASVKCCSSGSSSNAVASMSVSPSNHCVSKGKKEVESQGELEKPRQEEALPPRAQLTNSLKVLNGAADEKPVHRLLECTVQQVEDVKIVLKMLPIFACTIMLNCCLAQLSTFSVQQAASMNTKIGSLKIPPASLPIFPVVFIMILAPIYDHLIIPFARKATKTETGVTHLQRIGVGLVLSILAMAVAALVEIKRKGVAKDSGLLDSKETLPVTFLWIALQYLFLGSADLFTLAGLLEYFFTEAPSSMRSLATSLSWASLAMGYYLSSVIVSIVNSITGSSGNTPWLRGKSINRYKLDYFYWLMCVLSAANFLHYLFWAMRYKYRSTGSRS
notes: full CDS (pDONR207) in pGEM-GWC; cRNA-injected Xenopus oocytes; tag not given

Substrate: CC1=CC(=O)CC(C)(C)[C@@]1(O)/C=C/C(C)=C\C(=O)O
Experiment: cells, lysate or membranes
Format: cell-based, Arabidopsis thaliana
Conditions: pH 6.0, ND96, 0-5 μM ABA, labelled compound (10% 3H-ABA, 90% cold), apparent Km

Row | Protein | Km [µM]
1 | B1 | 0.522 ± 0.041
2 | B2 | 0.452 ± 0.025
